Source: publication doi:10.1101/2023.12.05.570295

Target: mKate2-K67R/R197H, named Diogenes

- OSER assay in live HeLa cells (CytERM fusion): whorl-free cells: 87%
Substance: mKate2-K67R/R197H, named Diogenes
